# Test results as given in patent US20190330271A1 (HANGZHOU WISDOM PANACEA BIOLOGICS, published 2019).
# B1: ZR4-ΔN (SEQ ID NO: 3), histidine-tagged (peptide)
# peptide: SFFNKR
# notes: ZR derivative with one Asn deleted; not shown: histidine tag
# B2: ZR + N (SEQ ID NO: 5), histidine-tagged (peptide)
# peptide: SFFNNNKR
# notes: ZR derivative with one more Asn; not shown: histidine tag
# B3: ZR + K (SEQ ID NO: 6), histidine-tagged (peptide)
# peptide: SFFNNKRK
# notes: ZR derivative with a Lys added after Arg7; not shown: histidine tag
# Molecular target: T1, Aβ42 oligomers (UniProt P05067 672-713)
# T1 construct: domain: Aβ42; Oligomeric state
# T1 sequence (P05067 672-713 limits assumed): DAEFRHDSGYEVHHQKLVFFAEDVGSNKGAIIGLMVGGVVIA
# Assay: ELISA on coated Aβ42 oligomers, His-tagged polypeptide at 1 µg per well
row,Binder,OD450
1,B1,0.49
2,B2,0.54
3,"SAFQNKR (not shown: histidine tag) [ZR4-FN/AQ (SEQ ID NO: 4), histidine-tagged]",0.47
4,B3,0.56
